Drawing on patent US8889619B2 (Beijing Dongfang Biotech Co., Ltd., priority 2010, dated 2014), this text covers Relative bioactivity for ten molecules.

B1: SEQ ID NO: 15: fusion protein: peptide hormone SEQ ID NO: 16 (differs from SEQ ID NO:2 in 3 sites), linker SEQ ID NO: 3, IgG2-Fc (protein)
chain: HTEGTFTSDASSYLEGQACKEFIAWLVKGRGGGGAGGGGVECPPCPAPPVAGPSVFLFPPKPKDTLMISRTPEVTCVVVDVSHEDPEVQFNWYVDGVEVHNAKTKPREEQFNSTFRVVSVLTVVHQDWLNGKEYKCKVSNKGLPAPIEKTISKTKGQPREPQVYTLPPSREEMTKNQVSLTCLVKGFYPSDIAVEWESNGQPENNYKTTPPMLDSDGSFFLYSKLTVDKSRWQQGNVFSCSVMHEALHNHYTQKSLSLSPGK
modifications: The sequence is synthesized
B2: SEQ ID NO: 19: fusion protein: peptide hormone SEQ ID NO: 20 (differs from SEQ ID NO:2 in 2 sites), linker SEQ ID NO: 3, IgG2-Fc (protein)
chain: HAEGTFTSDLSSYLEGQAIKEFIAWLVKGRGGGGAGGGGVECPPCPAPPVAGPSVFLFPPKPKDTLMISRTPEVTCVVVDVSHEDPEVQFNWYVDGVEVHNAKTKPREEQFNSTFRVVSVLTVVHQDWLNGKEYKCKVSNKGLPAPIEKTISKTKGQPREPQVYTLPPSREEMTKNQVSLTCLVKGFYPSDIAVEWESNGQPENNYKTTPPMLDSDGSFFLYSKLTVDKSRWQQGNVFSCSVMHEALHNHYTQKSLSLSPGK
modifications: The sequence is synthesized
B3: SEQ ID NO: 17: fusion protein: peptide hormone SEQ ID NO: 18 (differs from SEQ ID NO:2 in 3 sites), linker SEQ ID NO: 3, IgG2-Fc (protein)
chain: HTEGTFTSDLSSYLEGQASKEFIAWLVKGRGGGGAGGGGVECPPCPAPPVAGPSVFLFPPKPKDTLMISRTPEVTCVVVDVSHEDPEVQFNWYVDGVEVHNAKTKPREEQFNSTFRVVSVLTVVHQDWLNGKEYKCKVSNKGLPAPIEKTISKTKGQPREPQVYTLPPSREEMTKNQVSLTCLVKGFYPSDIAVEWESNGQPENNYKTTPPMLDSDGSFFLYSKLTVDKSRWQQGNVFSCSVMHEALHNHYTQKSLSLSPGK
modifications: The sequence is synthesized
B4: SEQ ID NO: 21: fusion protein: peptide hormone SEQ ID NO: 2 (GLP-1 (7-36) NH2), linker SEQ ID NO: 3, IgG2-Fc (protein)
chain: HAEGTFTSDVSSYLEGQAAKEFIAWLVKGRGGGGAGGGGVECPPCPAPPVAGPSVFLFPPKPKDTLMISRTPEVTCVVVDVSHEDPEVQFNWYVDGVEVHNAKTKPREEQFNSTFRVVSVLTVVHQDWLNGKEYKCKVSNKGLPAPIEKTISKTKGQPREPQVYTLPPSREEMTKNQVSLTCLVKGFYPSDIAVEWESNGQPENNYKTTPPMLDSDGSFFLYSKLTVDKSRWQQGNVFSCSVMHEALHNHYTQKSLSLSPGK
modifications: The sequence is synthesized
B5: SEQ ID NO: 5: fusion protein: peptide hormone SEQ ID NO: 6 (differs from SEQ ID NO:1 in 2 sites), linker SEQ ID NO: 3, IgG2-Fc (protein)
chain: HTEGTFTSDASKQMEEEAVRLFIEWLKDGGPSSGAPPPSGGGGAGGGGVECPPCPAPPVAGPSVFLFPPKPKDTLMISRTPEVTCVVVDVSHEDPEVQFNWYVDGVEVHNAKTKPREEQFNSTFRVVSVLTVVHQDWLNGKEYKCKVSNKGLPAPIEKTISKTKGQPREPQVYTLPPSREEMTKNQVSLTCLVKGFYPSDIAVEWESNGQPENNYKTTPPMLDSDGSFFLYSKLTVDKSRWQQGNVFSCSVMHEALHNHYTQKSLSLSPGK
modifications: The sequence is synthesized
B6: SEQ ID NO: 11: fusion protein: peptide hormone SEQ ID NO: 12 (differs from SEQ ID NO:1 in 6 sites), linker SEQ ID NO: 3, IgG2-Fc (protein)
chain: HAEGTFTSDASLTYEEEACRLFIEWLKDGGPSSGAPPPSGGGGAGGGGVECPPCPAPPVAGPSVFLFPPKPKDTLMISRTPEVTCVVVDVSHEDPEVQFNWYVDGVEVHNAKTKPREEQFNSTFRVVSVLTVVHQDWLNGKEYKCKVSNKGLPAPIEKTISKTKGQPREPQVYTLPPSREEMTKNQVSLTCLVKGFYPSDIAVEWESNGQPENNYKTTPPMLDSDGSFFLYSKLTVDKSRWQQGNVFSCSVMHEALHNHYTQKSLSLSPGK
modifications: The sequence is synthesized
B7: SEQ ID NO: 9: fusion protein: peptide hormone SEQ ID NO: 10 (differs from SEQ ID NO:1 in 4 sites), linker SEQ ID NO: 3, IgG2-Fc (protein)
chain: HAEGTFTSDASLTMEEEAVRLFIEWLKDGGPSSGAPPPSGGGGAGGGGVECPPCPAPPVAGPSVFLFPPKPKDTLMISRTPEVTCVVVDVSHEDPEVQFNWYVDGVEVHNAKTKPREEQFNSTFRVVSVLTVVHQDWLNGKEYKCKVSNKGLPAPIEKTISKTKGQPREPQVYTLPPSREEMTKNQVSLTCLVKGFYPSDIAVEWESNGQPENNYKTTPPMLDSDGSFFLYSKLTVDKSRWQQGNVFSCSVMHEALHNHYTQKSLSLSPGK
modifications: The sequence is synthesized
B8: SEQ ID NO: 7: fusion protein: peptide hormone SEQ ID NO: 8 (differs from SEQ ID NO:1 in 3 sites), linker SEQ ID NO: 3, IgG2-Fc (protein)
chain: HTEGTFTSDASLQMEEEAVRLFIEWLKDGGPSSGAPPPSGGGGAGGGGVECPPCPAPPVAGPSVFLFPPKPKDTLMISRTPEVTCVVVDVSHEDPEVQFNWYVDGVEVHNAKTKPREEQFNSTFRVVSVLTVVHQDWLNGKEYKCKVSNKGLPAPIEKTISKTKGQPREPQVYTLPPSREEMTKNQVSLTCLVKGFYPSDIAVEWESNGQPENNYKTTPPMLDSDGSFFLYSKLTVDKSRWQQGNVFSCSVMHEALHNHYTQKSLSLSPGK
modifications: The sequence is synthesized
B9: SEQ ID NO: 13: fusion protein: peptide hormone SEQ ID NO: 14 (GLP-1A8G), linker SEQ ID NO: 3, IgG2-Fc (protein)
chain: AAEGTFTGDVSSYLEGQAAKEFIAWLVKGRGGGGGAGGGGVECPPCPAPPVAGPSVFLFPPKPKDTLMISRTPEVTCVVVDVSHEDPEVQFNWYVDGVEVHNAKTKPREEQFNSTFRVVSVLTVVHQDWLNGKEYKCKVSNKGLPAPIEKTISKTKGQPREPQVYTLPPSREEMTKNQVSLTCLVKGFYPSDIAVEWESNGQPENNYKTTPPMLDSDGSFFLYSKLTVDKSRWQQGNVFSCSVMHEALHNHYTQKSLSLSPGK
modifications: The sequence is synthesized

The assay concerns KK-Ay diabetic model mice. The assay can be described thus: Long-term administration experiment, KK-Ay diabetic model mice. It counts as in vivo, mouse. The following applies: fast blood glucose decrease vs blank control relative to fusion protein of example 2; 1 mg/Kg twice per week, after 2 weeks, fasted 6 h. As for the experimental part: The drug is given twice per week, and the mice are fasted for 6 h each Wednesday and tested for fast blood glucose, meanwhile their food intake and weight variation are recorded. […] Specifically, long term administration is conducted according to the following protocol: the KK-Ay diabetic model mice are randomized into blank control group (injected only with PBS) and experimental group (injected with 1 mg/Kg of the fusion protein in Table 3). The drug is given twice per week; after 2 weeks, the mice are fasted for 6 h and tested for fasting blood glucose, and the blood glucose decrease of one experimental group is calculated by subtracting the fasting blood glucose of the experimental group from that of the blank control group.
“SEQ ID NO: 22: fusion protein: peptide hormone SEQ ID NO: 1 (Exendin-4), linker SEQ ID NO: 3, IgG4-Fc”: the Relative bioactivity amounted to 75%.
For B1 the value was 94%; for B2, 92%.
For B3 the value was 93%; for B4, 91%.
In turn, B5 registered a Relative bioactivity of 99%.
With B6 the figure was 96%; with B7, 97%.
With B8 the figure was 98%; with B9, 95%.
